Reference: article PMC6141180

Target: p38α (UniProt P47811)
Assay: ITC
Details: reference: native TAB1 (1-438); sites S423

binding against the reference: same
Substance: TAB1 1-438 (from UniProt Q8CF89) pS423TAB1 (1-438), genetically encoded phosphoserine
